# Experimental data reported in patent US20250074980A1 (BRIGHAM AND WOMEN S HOSPITAL, published 2025).
# T1: His-tagged CEACAM1 (human, UniProt P13688 35-428)
# T1 construct: 45 kDa SPR analyte; also called CEACAM1-HIS; CEACAM1 analyte
# T1 sequence: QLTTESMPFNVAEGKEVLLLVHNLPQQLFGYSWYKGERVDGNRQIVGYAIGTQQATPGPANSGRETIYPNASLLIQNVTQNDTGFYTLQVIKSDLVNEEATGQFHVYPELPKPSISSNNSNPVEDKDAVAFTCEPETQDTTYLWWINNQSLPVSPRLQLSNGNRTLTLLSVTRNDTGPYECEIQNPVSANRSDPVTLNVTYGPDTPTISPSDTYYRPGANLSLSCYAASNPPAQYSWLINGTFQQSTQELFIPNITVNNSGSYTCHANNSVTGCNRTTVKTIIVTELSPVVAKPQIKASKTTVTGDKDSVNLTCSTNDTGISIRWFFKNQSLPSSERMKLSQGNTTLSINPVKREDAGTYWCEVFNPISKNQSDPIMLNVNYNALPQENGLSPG
# B1: chimeric antibody VH0/Vκ0 (antibody, IgG4, V domains shown)
# VH: EVQLVESGGDLVKPGGSLKLACAASGFIFSSHGMSWVRQTPDKRLEWVATISSGGTYTYYPDSVKGRFTISRDNDKNTLYLQMNSLKSEDTAMYYCARHDFDYDAAWFAYWGQGTLVTVSS
# VL: QIVLTQSPALMSASPGVKVTMTCSANSSVSYMYWYRQKPRSSPKPWIYLTSNLASGVPARFSGSGSGTSYSLTISSMEAEDAATYYCQQWSSNPPTFGSGTKLEIK
# notes: IgG4 (S241P), kappa; also called VH0/Vκ0 (control); Chimeric VH0/Vκ0
# Target: T1, His-tagged CEACAM1
# Experiment: SPR multi-cycle
# Method in brief: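 Surface plasmon resonance multi-cycle kinetics on a Biacore T200 at 25° C in HBS-P+ (pH 7.4). Purified antibody at 1 μg/ml was captured on a Series S Protein A chip to ~75 RU, with His-tagged CEACAM1 analyte in 2-fold dilutions from 200 to 3.125 nM or 100 to 1.5625 nM at 80 μl/min. Association was 50 or 150 seconds and dissociation 100 seconds, with glycine-HCl pH 1.5 regeneration. Kon, koff, Kd and relative KD come from these sensorgrams.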
binder,measurement,value
B1,Kd,105 nM
same,koff,0.0258 s⁻¹
same,kon,246000 M⁻¹ s⁻¹
same,relative KD,1
